In doi:10.1101/626572:

Target: Concanavalin A (Con A) (UniProt P02866;P02866 164-281;30-148)
Assay: particle-based flow cytometry

Sequence of Concanavalin A (Con A) (P02866 164-281, chain 1 of 2): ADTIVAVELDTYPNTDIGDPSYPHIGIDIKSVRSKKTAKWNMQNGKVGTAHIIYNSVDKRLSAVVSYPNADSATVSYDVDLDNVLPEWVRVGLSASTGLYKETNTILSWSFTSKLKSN
Sequence of Concanavalin A (Con A) (P02866 30-148, chain 2 of 2): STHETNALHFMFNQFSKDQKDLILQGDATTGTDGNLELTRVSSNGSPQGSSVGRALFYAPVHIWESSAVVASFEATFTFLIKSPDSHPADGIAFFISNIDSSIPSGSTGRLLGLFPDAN

B1: ConA-3-1n (ssDNA)
DNA: GATCCCAGTCCGAAGTAATCGTTGCATCTGCACGACTGGTGAGCTTGAGTGGCAGAAGAACTTGTGCAAACGGCTATAGG
- binding result: no binding
